In PMC11711316 (Nature Communications, 2025):

How the values were obtained:
[1] = target: T1, Rab3GAP2N (N-terminal domain of Rab3GAP2, 1-544) (human, UniProt Q9H2M9 1-544); assay: SEC
T1 sequence (looked up): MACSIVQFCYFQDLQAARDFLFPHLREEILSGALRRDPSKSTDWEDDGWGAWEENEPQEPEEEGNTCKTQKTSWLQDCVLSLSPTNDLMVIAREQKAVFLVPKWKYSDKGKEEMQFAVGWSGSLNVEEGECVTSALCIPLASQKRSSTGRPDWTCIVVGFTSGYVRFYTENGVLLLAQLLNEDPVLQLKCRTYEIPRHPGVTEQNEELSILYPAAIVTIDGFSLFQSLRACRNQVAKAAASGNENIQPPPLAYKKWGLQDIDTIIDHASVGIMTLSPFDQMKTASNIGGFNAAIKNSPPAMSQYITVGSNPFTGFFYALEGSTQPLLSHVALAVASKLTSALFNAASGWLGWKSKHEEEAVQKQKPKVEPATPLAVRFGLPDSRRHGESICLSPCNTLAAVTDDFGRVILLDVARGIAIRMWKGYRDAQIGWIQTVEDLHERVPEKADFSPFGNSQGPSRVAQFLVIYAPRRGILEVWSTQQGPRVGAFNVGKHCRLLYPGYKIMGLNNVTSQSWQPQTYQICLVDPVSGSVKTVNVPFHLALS

[2] = target: T2, Rab3GAP2 (human, full length, C-terminal 3x-FLAG) (human, UniProt Q9H2M9 1-1393); assay: SEC
T2 sequence (looked up): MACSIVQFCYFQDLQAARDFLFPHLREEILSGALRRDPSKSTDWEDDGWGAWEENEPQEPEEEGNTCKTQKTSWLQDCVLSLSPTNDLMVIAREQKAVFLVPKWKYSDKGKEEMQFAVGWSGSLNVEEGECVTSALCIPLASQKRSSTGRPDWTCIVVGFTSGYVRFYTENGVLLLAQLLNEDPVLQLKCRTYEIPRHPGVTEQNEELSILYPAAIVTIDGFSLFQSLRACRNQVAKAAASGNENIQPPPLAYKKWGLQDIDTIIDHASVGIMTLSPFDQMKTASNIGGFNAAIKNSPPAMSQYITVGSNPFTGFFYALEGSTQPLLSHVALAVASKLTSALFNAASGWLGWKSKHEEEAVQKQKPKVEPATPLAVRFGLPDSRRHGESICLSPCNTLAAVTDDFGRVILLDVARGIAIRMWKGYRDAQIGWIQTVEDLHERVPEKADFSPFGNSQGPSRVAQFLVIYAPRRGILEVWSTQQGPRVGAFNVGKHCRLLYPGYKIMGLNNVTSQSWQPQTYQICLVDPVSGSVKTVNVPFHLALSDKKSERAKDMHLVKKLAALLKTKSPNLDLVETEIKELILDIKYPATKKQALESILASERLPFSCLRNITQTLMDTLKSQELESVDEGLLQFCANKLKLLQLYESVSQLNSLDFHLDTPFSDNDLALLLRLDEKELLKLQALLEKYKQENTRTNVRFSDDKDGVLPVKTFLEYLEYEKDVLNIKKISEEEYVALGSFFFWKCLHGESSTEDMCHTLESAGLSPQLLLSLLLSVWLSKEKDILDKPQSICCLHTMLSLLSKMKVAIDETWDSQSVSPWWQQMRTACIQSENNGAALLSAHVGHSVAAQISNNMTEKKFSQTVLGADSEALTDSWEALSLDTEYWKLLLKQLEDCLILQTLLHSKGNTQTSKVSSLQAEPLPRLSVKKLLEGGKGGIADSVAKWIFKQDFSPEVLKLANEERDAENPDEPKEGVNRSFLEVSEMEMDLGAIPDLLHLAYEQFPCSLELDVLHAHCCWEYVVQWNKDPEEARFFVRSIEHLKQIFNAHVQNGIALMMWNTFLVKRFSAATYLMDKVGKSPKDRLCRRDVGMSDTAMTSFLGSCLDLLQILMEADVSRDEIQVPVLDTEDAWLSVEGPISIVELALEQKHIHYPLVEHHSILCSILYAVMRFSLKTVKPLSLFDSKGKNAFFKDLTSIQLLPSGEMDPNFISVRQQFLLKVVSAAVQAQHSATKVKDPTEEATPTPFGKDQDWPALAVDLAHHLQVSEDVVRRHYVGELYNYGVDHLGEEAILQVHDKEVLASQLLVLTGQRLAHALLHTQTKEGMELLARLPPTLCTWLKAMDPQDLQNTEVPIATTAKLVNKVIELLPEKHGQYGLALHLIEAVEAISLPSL

- stoichiometry N [1]: 1
- stoichiometry N [2]: 1
B1: Rab3GAP1 (human, full length, N-terminal TSP tag) (natural protein, UniProt Q15042 1-981, looked up)
chain: MAADSEPESEVFEITDFTTASEWERFISKVEEVLNDWKLIGNSLGKPLEKGIFTSGTWEEKSDEISFADFKFSVTHHYLVQESTDKEGKDELLEDVVPQSMQDLLGMNNDFPPRAHCLVRWYGLREFVVIAPAAHSDAVLSESKCNLLLSSVSIALGNTGCQVPLFVQIHHKWRRMYVGECQGPGVRTDFEMVHLRKVPNQYTHLSGLLDIFKSKIGCPLTPLPPVSIAIRFTYVLQDWQQYFWPQQPPDIDALVGGEVGGLEFGKLPFGACEDPISELHLATTWPHLTEGIIVDNDVYSDLDPIQAPHWSVRVRKAENPQCLLGDFVTEFFKICRRKESTDEILGRSAFEEEGKETADITHALSKLTEPASVPIHKLSVSNMVHTAKKKIRKHRGVEESPLNNDVLNTILLFLFPDAVSEKPLDGTTSTDNNNPPSESEDYNLYNQFKSAPSDSLTYKLALCLCMINFYHGGLKGVAHLWQEFVLEMRFRWENNFLIPGLASGPPDLRCCLLHQKLQMLNCCIERKKARDEGKKTSASDVTNIYPGDAGKAGDQLVPDNLKETDKEKGEVGKSWDSWSDSEEEFFECLSDTEELKGNGQESGKKGGPKEMANLRPEGRLYQHGKLTLLHNGEPLYIPVTQEPAPMTEDLLEEQSEVLAKLGTSAEGAHLRARMQSACLLSDMESFKAANPGCSLEDFVRWYSPRDYIEEEVIDEKGNVVLKGELSARMKIPSNMWVEAWETAKPIPARRQRRLFDDTREAEKVLHYLAIQKPADLARHLLPCVIHAAVLKVKEEESLENISSVKKIIKQIISHSSKVLHFPNPEDKKLEEIIHQITNVEALIARARSLKAKFGTEKCEQEEEKEDLERFVSCLLEQPEVLVTGAGRGHAGRIIHKLFVNAQRAAAMTPPEEELKRMGSPEERRQNSVSDFPPPAGREFILRTTVPRPAPYSKALPQRMYSVLTKEDFRLAGAFSSDTSFF
